Holding throughout (type): cell-based
Assay [1] has as its system PFA-fixed Jurkats cells. As to the kind of experiment: RNA yield and DV200 from PFA-fixed Jurkats after Subtilisin A with or without compound (1) (Example 2). The settings on record: 4% PFA-fixed Jurkats, 50 mM compound (1) where present. As to the method:
Materials and Methods: A protease stock solution of 100 mg/ml Subtilisin A from Bacillus licheniformis (Sigma-Aldrich, cat. #P5380) was prepared in H2O and stored at −20° C. A stock solution of the un-fixing agent of 100 mM compound (1) in 30 mM Tris-HCl, 1 mM EDTA, pH 6.8, was prepared and stored at room temperature. Dissociated single cells (Jurkats) were pelleted by 400 g centrifugation for 5 minutes and the supernatant removed. A fixing reagent solution of 4% PFA in PBS with 0.2 U/μL Qiagen RNAse Inhibitor (Qiagen, cat. #129916) was added to the pelleted cells and the mixture incubated at 4° C. overnight. The resulting fixed cells were quenched with 10% FBS in PBS and spun down for 5 minutes at 500 g, 4° C. 150,000 fixed cells were washed once in PBS then resuspended in 100 μL, 30 mM Tris-HCL, 1 mM EDTA, pH 6.8. RNAse Inhibitor was added to the fixed cell solution together with one of the following: (a) 5 mg/mL Subtilisin A; or (b) 5 mg/mL Subtilisin A and 50 mM compound (1). The fixed cell solution with Subtilisin A protease and with or without the un-fixing agent of compound (1) was allowed to incubate at 8° C. for 2 hours, followed by 15 minutes at 70° C. shaking continuously at 300 rpm on an Eppendorf Thermomixer. The resulting cell solutions were spun down for 5 minutes at 500 g, 4° C., and the supernatant and pellet fractions were collected separately. RNA extraction of the collected fractions was carried out using Qiagen 96 Kit (Qiagen, cat. #74181), bulk RNA sequencing, and/or single cell 3′ sequencing. Control samples of fresh cells, fresh cells with un-fixing conditions, and fixed cells without un-fixing treatment were also prepared and RNA extracted. RNA yield was assessed by Qubit HS Assay (Q32855) and yield and DV200 quality metric was assessed by Agilent 4200 High Sensitivity ScreenTape (5067-5579).

Assay [2] has as its system PFA-fixed Jurkats cells. The assay is described as follows: RNA yield and DV200 from PFA-fixed Jurkats after Subtilisin A with or without compounds (1) and/or (8) (Example 4). The settings on record: 5 mg/mL Subtilisin A. As to the method: A. Protease preparation: A protease stock solution of 100 mg/ml Subtilisin A from Bacillus licheniformis (Sigma-Aldrich, cat. #P5380) was prepared in H2O and stored at −20° C.
(§1) B. Un-fixing agent stock solutions: A stock solution of the un-fixing agent of 100 mM compound (1) in 30 mM Tris-HCl, 1 mM EDTA, pH 6.8, was prepared and stored at room temperature. A stock solution of the un-fixing agent of 100 mM compound (8) in 30 mM Tris-HCl, 1 mM EDTA, pH 6.8, was prepared and stored at room temperature.
(§2) C. Fixed cell preparation: Dissociated single cells (Jurkats) were pelleted by 400 g centrifugation for 5 minutes and the supernatant removed. A fixing reagent solution of 4% PFA in PBS with 0.2 U/μL Qiagen RNAse Inhibitor (Qiagen, cat. #129916) was added to the pelleted cells and the mixture incubated at 4° C. overnight. The resulting fixed cells were quenched with 10% FBS in PBS and spun down for 5 minutes at 500 g, 4° C. 150,000 fixed cells were washed once in PBS then resuspended in 100 μL, 30 mM Tris-HCL, 1 mM EDTA, pH 6.8.
D. Cell un-fixing/protease treatment: RNAse Inhibitor was added to the fixed cell solution together with one of the following: (a) 5 mg/mL Subtilisin A protease; (b) 5 mg/mL Subtilisin A protease and 50 mM compound (1); (c) 5 mg/mL Subtilisin A protease and 50 mM compound (8); (d) 5 mg/mL Subtilisin A protease and 25 mM compound (8) and 25 mM compound (1).
The fixed cell solutions treated with Subtilisin A protease and with or without the un-fixing agents of compounds (1) and/or (8) were allowed to incubate under one of the following conditions: (1) 8° C. for 2 hours; (2) 8° C. for 2 hours, followed by 15 minutes at 70° C. shaking continuously at 300 rpm on an Eppendorf Thermomixer; (3) 53° C. for 45 min; or (4) 53° C. for 45 min followed by 15 minutes at 70° C. shaking continuously at 300 rpm on an Eppendorf Thermomixer. The resulting cell solutions were spun down for 5 minutes at 500 g, 4° C., and the supernatant and pellet fractions were collected separately.
(§3) E. RNA quantitation: RNA extraction of the collected fractions was carried out using Qiagen 96 Kit (Qiagen, cat. #74181), bulk RNA sequencing, and/or single cell 3′ sequencing. Control samples of fresh cells, fresh cells with un-fixing conditions, and fixed cells without un-fixing treatment were also prepared and RNA extracted. RNA yield was assessed by Qubit HS Assay (Q32855) and yield and DV200 quality metric was assessed by Agilent 4200 High Sensitivity ScreenTape (5067-5579).

For assay [3], the system named is PFA-fixed Jurkats cells. As to the kind of experiment: RNA yield and DV200 from PFA-fixed Jurkats after Proteinase K with or without compounds (1) and/or (8) (Example 5). The settings on record: 4% PFA-fixed Jurkats, 53° C./45 min. As to the method: A. Protease preparation: A stock solution of 20 mg/mL Proteinase K (Sigma-Aldrich, cat. #_AM258) was stored at −20° C.
as §1, §2
D. Cell un-fixing/protease treatment: RNAse Inhibitor was added to the fixed cell solution together with one of the following: (a) 0.1 mg/mL Proteinase K protease; (b) 0.2 mg/mL Proteinase K protease; (c) 0.4 mg/mL Proteinase K protease; (d) 0.2 mg/mL Proteinase K protease and 50 mM compound (1); (e) 0.4 mg/mL Proteinase K protease and 50 mM compound (1); (f) 0.2 mg/mL Proteinase K protease and 50 mM compound (8); (g) 0.4 mg/mL Proteinase K protease and 50 mM compound (8); (h) 0.2 mg/mL Proteinase K protease and 25 mM compound (8) and 25 mM compound (1); or (i) 0.4 mg/mL Proteinase K protease and 25 mM compound (8) and 25 mM compound (1). The fixed cell solutions treated with Proteinase K protease and with or without the un-fixing agents of compounds (1) and/or (8) were allowed to incubate at 53° C. for 45 min. The resulting cell solutions were spun down for 5 minutes at 500 g, 4° C., and the supernatant and pellet fractions were collected separately.
as §3

Assay [4] has as its system PFA-fixed Jurkats cells. The assay is described as follows: Bulk un-fixing, then single-cell partition barcoding, 3'-RT and cDNA electropherogram (Example 7). Conditions: Fresh cells partitioned with the RT assay reagent mix and the protease. As to the method:
A. Protease preparation: A stock solution of 20 mg/mL Proteinase K (Sigma-Aldrich, cat. #AM258) was stored at −20° C.
B. Un-fixing agent of compound (8) stock solutions: A stock solution of the un-fixing agent of 100 mM compound (8) in 30 mM Tris-HCl, 1 mM EDTA, pH 6.8, was prepared and stored at room temperature.
as §2
D. Cell un-fixing/protease treatment: RNAse Inhibitor was added to the fixed cell solution together with 0.1 mg/mL Proteinase K and 50 mM compound (8). The fixed cell solution treated with the protease and compounds (8) were allowed to incubate at 53° C. for 45 min. The resulting cell solutions were spun down for 5 minutes at 500 g, 4° C., and the supernatant and pellet fractions were collected separately. […]

The mark [5] stands for this setting: 5 mg/mL Subtilisin A, 8° C./2 hr.
The mark [6] stands for this setting: un-fixing agent 50 mM (25 mM each in combination), 8° C./2 hr then 70° C./15 min.
Setting [7] is: un-fixing agent 50 mM (25 mM each in combination), 53° C./45 min.
[8] abbreviates: Proteinase K at 0.2 mg/mL, un-fixing agent 50 mM (25 mM each in combination).
[9] abbreviates: Proteinase K at 0.4 mg/mL, un-fixing agent 50 mM (25 mM each in combination).

Two molecules from patent US12241890B2, “Methods for generating barcoded nucleic acid molecules using fixed cells” (10X Genomics, Inc., priority 2019, dated 2025) can be followed below.

B1: Subtilisin A: protease Subtilisin A from Bacillus licheniformis (Sigma-Aldrich, cat. #P5380) (protein, UniProt P00780 106-379, looked up)
Subtilisin Carlsberg: AQTVPYGIPLIKADKVQAQGFKGANVKVAVLDTGIQASHPDLNVVGGASFVAGEAYNTDGNGHGTHVAGTVAALDNTTGVLGVAPSVSLYAVKVLNSSGSGSYSGIVSGIEWATTNGMDVINMSLGGASGSTAMKQAVDNAYAKGVVVVAAAGNSGSSGNTNTIGYPAKYDSVIAVGAVDSNSNRASFSSVGAELEVMAPGAGVYSTYPTNTYATLNGTSMASPHVAGAAALILSKHPNLSASQVRNRLSSTATYLGSSFYYGKGLINVEAAAQ
As to B1, in the assay on PFA-fixed Jurkats cells [1] (setting [5]), the “Pellet Qubit Avg (SD), RNA yield” value amounted to 21; the “Pellet Tapestation Avg (SD), RNA yield” value worked out at 21; the “Supernatant Tapestation Avg (SD), RNA yield” value stood at 8. In addition, the “RNA recovery relative to fresh cells” value in the assay on PFA-fixed Jurkats cells [1] (Subtilisin A, 2 h at 8° C.) is “about 7%”. Moreover, in the assay on PFA-fixed Jurkats cells [2] (8° C./2 hr), the “Pellet Qubit Avg (SD), RNA yield” value is listed as 108.4; the “Pellet Tapestation Avg (SD), RNA yield” value stood at 49; the “Supernatant Qubit Avg (SD), RNA yield” value came to 0. In addition, in the assay on PFA-fixed Jurkats cells [2] (setting [6]), the “Pellet Qubit Avg (SD), RNA yield” value was determined as 106; the “Pellet Tapestation Avg (SD), RNA yield” value amounted to 58; the “Supernatant Qubit Avg (SD), RNA yield” value was found to be 398; the “Supernatant Tapestation Avg (SD), RNA yield” value is 231. Further, in the assay with PFA-fixed Jurkats cells [2] (setting [7]), the “Pellet Qubit Avg (SD), RNA yield” value is recorded as 144; the “Pellet Tapestation Avg (SD), RNA yield” value is given as 244; the “Supernatant Qubit Avg (SD), RNA yield” value is listed as 245; the “Supernatant Tapestation Avg (SD), RNA yield” value was determined as 252.

B2: Proteinase K: the protease, Proteinase K (Sigma-Aldrich, cat. #AM258) (protein, UniProt P06873 106-384, looked up)
Proteinase K: AAQTNAPWGLARISSTSPGTSTYYYDESAGQGSCVYVIDTGIEASHPEFEGRAQMVKTYYYSSRDGNGHGTHCAGTVGSRTYGVAKKTQLFGVKVLDDNGSGQYSTIIAGMDFVASDKNNRNCPKGVVASLSLGGGYSSSVNSAAARLQSSGVMVAVAAGNNNADARNYSPASEPSVCTVGASDRYDRRSSFSNYGSVLDIFGPGTSILSTWIGGSTRSISGTSMATPHVAGLAAYLMTLGKTTAASACRYIADTANKGDLSNIPFGTVNLLAYNNYQA
In the case of B2, in the assay on PFA-fixed Jurkats cells [3] (Proteinase K at 0.1 mg/mL), the “Pellet Qubit Avg (SD), RNA yield” value worked out at 1350; the “Pellet Tapestation Avg (SD), RNA yield” value amounted to 1804.5; the “Supernatant Qubit Avg (SD), RNA yield” value is 321.3; the “Supernatant Tapestation Avg (SD), RNA yield” value was 152.55. In addition, in the assay with PFA-fixed Jurkats cells [3] (setting [8]), the “Pellet Qubit Avg (SD), RNA yield” value was 107.82; the “Pellet Tapestation Avg (SD), RNA yield” value was 127.8; the “Supernatant Qubit Avg (SD), RNA yield” value stood at 251.1; the “Supernatant Tapestation Avg (SD), RNA yield” value is 121.05. In the assay on PFA-fixed Jurkats cells [3] (setting [9]), the “Pellet Qubit Avg (SD), RNA yield” value is recorded as 106.2; the “Pellet Tapestation Avg (SD), RNA yield” value worked out at 76.725; the “Supernatant Qubit Avg (SD), RNA yield” value is 266.4; the “Supernatant Tapestation Avg (SD), RNA yield” value amounted to 125.55. Moreover, in the assay on PFA-fixed Jurkats cells [4], the “cDNA electropherogram profile from single-cell 3'-RT (FIG. 11B)” value is given as “no mound profile”.
